These results are taken from PMC11218506, “Characterization of the dual regulation by a c-di-GMP riboswitch Bc1 with a long expression platform from Bacillus thuringiensis”.

In data set [1] the target is T1, Zur (Bacillus thuringiensis BMB171, UniProt A0A0G3E7H1 1-137). As to the kind of experiment: EMSA; 100 uM MnCl2 (Mn2+ addition did not affect the interaction); 50 mM Tris-HCl pH 7.5, 10 mM MgCl2, 1 mM DTT, 100 mM NaCl, 100 uM MnCl2; 25 C, 30 min; 6% native PAGE in 0.5x TBE; DNA stated as 50 uM. The note with it: protein: recombinant; tags: C-terminal 6xHis (pET28b); chain copies: 2; label: none (YeaRed gel stain); blunt.

Data set [2] has as its target T1, Zur. Nature of the data set: EMSA; 100 uM MnCl2 per Methods; 50 mM Tris-HCl pH 7.5, 10 mM MgCl2, 1 mM DTT, 100 mM NaCl, 100 uM MnCl2; 25 C, 30 min; 6% native PAGE in 0.5x TBE; DNA stated as 50 uM. The following applies: protein: recombinant; tags: C-terminal 6xHis (pET28b); chain copies: 2; label: none (YeaRed gel stain); blunt. For orientation: In EMSA bound probe runs differently from free probe, usually more slowly.

B1: Bc1 dual terminator coding sequence (dsDNA)
DNA 1: CCAATGCTTTTACATTGGCTTTTTTTTATTCTCGAACATATTGAGAAACATTTTCAAAC
DNA 2: GTTTGAAAATGTTTCTCAATATGTTCGAGAATAAAAAAAAGCCAATGTAAAAGCATTGG
As to B1, the binding result with Zur [1] is given as “binds”.

B2: mutant Bc1 dual terminator coding sequence (dsDNA)
DNA 1: CCAATGCTTTTACATTGGCTTTTTTTTATTCTCGAACATGCCACACCCATAAGCAGCCT
DNA 2: AGGCTGCTTATGGGTGTGGCATGTTCGAGAATAAAAAAAAGCCAATGTAAAAGCATTGG
For B2, the binding result with Zur [2] is listed as “no binding”.

B3: ck+ (dhbA positive control) (dsDNA)
DNA 1: TTATTTTTATAATTGATAATGATAATCATTATCAATAGATTGCGTTTTTC
DNA 2: GAAAAACGCAATCTATTGATAATGATTATCATTATCAATTATAAAAATAA
Regarding B3, the binding result in the data set with Zur [2] is “binds”.
